Literature values as cited in PMC6389863.

What was measured:
[1] = target: Asp70 (UniProt position 70, KLFNQDVDAAV)
[2] = target: Cys25 (UniProt position 158, GSCGSCWAFSA)
[3] = target: His149 (UniProt position 177, ITFTNHVNAWK)
[4] = target: His18 (UniProt position 19, KCAQCHTVEKG)
[5] = target: Tyr149 (UniProt position 149, TPQSPYGKSKL)
[6] = target: Cys25 (UniProt position 157, GSCGSCWAFSA)
[7] = target: Asp76 (UniProt position 102, GSPGADRVVFN)
[8] = target: Asp102 (UniProt position 102, LTINNDITLLK)
[9] = target: Asp26 (UniProt position 26, KLVVVDFSATW); conditions: reduced (active-site dithiol) thioredoxin
[10] = target: Glu73 (UniProt position 120, GRTWREADINY)
[11] = target: Lys39 (UniProt position 39, EFPGGKIEMGE)
[12] = target: Cys87 (UniProt position 87, RLGRICLDVLK)
[13] = tested on: Tyr31
[14] = tested on: Lys55
[15] = target: His72 (UniProt position 73, GINTAHKARQV)

For “T4 lysozyme (Enterobacteria phage T4 (inferred))”, the pKa [1] is given as 0.5.
For Papain (Carica papaya (inferred)), the pKa [2] is given as 3.32.
For “Xylanase (Bacillus circulans xylanase) (Bacillus circulans (from the title of ref 20))”, the pKa [3] is listed as under 2.3.
For Cytochrome c (horse) (Equus caballus), the pKa [4] is given as 2.5.
In the case of “UDP-galactose 4-epimerase (Escherichia coli)”, the pKa [5] is given as 6.08.
In the case of “Papaya protease (PDB 1PPO; caricain / papaya protease omega) (Carica papaya (inferred))”, the pKa [6] is listed as 2.88.
In the case of “Ribonuclease T1 (RNase T1) (not stated (inferred Aspergillus oryzae))”, the pKa [7] is listed as 0.5.
For “Chymotrypsinogen A (bovine) (Bos taurus)”, the pKa [8] is given as 1.36.
For “Thioredoxin (human, reduced) (Homo sapiens)”, the pKa [9] is given as 9.9.
For “Barnase (not stated (inferred Bacillus amyloliquefaciens))”, the pKa [10] is given as 2.1.
In the case of “MutT enzyme (not stated (inferred Escherichia coli))”, the pKa [11] is given as 8.4.
In the case of “Ubiquitin-conjugating enzyme Ubc13 (not stated (PDB 1JBB is Saccharomyces cerevisiae Ubc13, inferred))”, the pKa [12] is given as 11.1.
In the case of “Ovomucoid third domain, silver pheasant (OMSVP3) (Lophura nycthemera (silver pheasant))”, the pKa [13] is listed as 12.5.
For Calbindin D9k (bovine) (Bos taurus), the pKa [14] is given as 12.12.
In the case of “Bovine heart phosphotyrosyl phosphatase (low molecular weight PTP) (Bos taurus)”, the pKa [15] is listed as 9.19.
